This is an account of results in patent US10221404B2, “Method for modifying characteristics of a lipase” (Novozymes A/S, priority 2014, dated 2019).

This test in a line: AMSA wash performance, specificity of inhibitory effect of propeptide. Particulars: for With inhibitor RP (wash): propeptide SEQ ID No: 4 in 320:1 molar ratio, 3 hours at 4° C., normalized to wash performance without inhibitor; for No inhibitor RP (wash): without propeptide SEQ ID No: 4, normalized per lipase. The procedure: Washing experiments were performed using Automatic Mechanical Stress Assay (AMSA) in order to assess the wash performance in laundry. The AMSA plate has a number of slots for test solutions and a lid firmly squeezing the laundry sample, the textile to be washed against all the slot openings. During the washing time, the plate, test solutions, textile and lid were vigorously shaken to bring the test solution in contact with the textile and apply mechanical stress in a regular, periodic oscillating manner. For further description see WO02/42740 especially the paragraph “Special method embodiments” at page 23-24.
The laundry experiments were conducted in Model Detergent B, pH8. The experimental conditions are specified below:
Final adjustments to the specified pH were done with NaOH or citric acid. Water hardness was adjusted to 15° dH by addition of CaCl2 and MgCl2 (Ca^2+:Mg^2+=4:1) to the test system.
After washing the textiles were flushed in tap water and excess water was removed from the textiles using filter paper and immediately thereafter the textiles were dried at 85° C. for 5 min.
The wash performance was measured as the color change of the washed soiled textile. The soil was cream mixed with turmeric. Turmeric contains the colorant curcumin, which function as a pH indicator by having pH dependent color change. Lipase activity leads to release of free fatty acids from the cream acylglycerides and this leads to pH decrease and thereby color change of the curcumin pH indicator. Lipase wash performance can therefore be expressed as the extent of color change of light reflected-emitted from the washed soiled textile when illuminated with white light.
Color measurements were made with a professional flatbed scanner (EPSON EXPRESSION 10000XL, Atea NS, Lautrupvang 6, 2750 Ballerup, Denmark), which was used to capture an image of the washed soiled textile. To extract a value for the light intensity from the scanned images, 24-bit pixel values from the image were converted into values for red, green and blue (RGB).
Color change due to lipase activity was measured as the increase in the reflection-emitting of green light (G) relative to the sum of reflected-emitted blue (B) and red (R) light. The wash performance (RP(Wash)) of a lipase relative to a reference lipase (Lipolase™) was calculated as: RP(Wash)=(G/(B+R)(tested lipase)−G/(B+R)(no enzyme))/(G/(B+R)(lipase ref.)−G/(B+R)(no enzyme)).
The inhibitory specificity of the isolated propeptide was determined by mixing the isolated propeptide in a 320:1 molar ratio with 5 different lipases including the active RmL. All enzymes were diluted in 10 mM succinic acid buffer, pH6.5, to a concentration of 1.5 uM and were mixed (1:1) with purified propeptide dilutions. After 3 hours incubation at 4° C. the lipase performance of the incubated lipase-inhibitor samples were determined by Automatic Mechanical Stress Assay (AMSA) as described above. The relative wash performance “RP(wash)” is for each lipase normalized to the wash performance without inhibitor.

B1: isolated propeptide: propeptide of RmL, amino acid sequence SEQ ID No: 4, purified from RmL (protein, listed as Rhizomucor miehei)
chain: VPIKRQSNSTVDSLPPLIPSRTSAPSSSPSTTDPEAPAMSRNGPLPSDVETKYGMALNATSYPDSVVQAM
For the molecule B1, the “inhibitory specificity of the isolated propeptide” value (320:1 molar ratio with different lipases) is reported as “exclusively effect with RmL”.

B2: SEQ ID NO: 7 (RhimiLip1): lipase of SEQ ID NO: 7, tested for propeptide specificity (protein)
chain: MVSFISISQGVSLCLLVSSMMLGSSAVPVAGHKGSVKATNGTDFQLPPLISSRCTPPSHPETTGDPDAEAYYINKSVQWYQAHGGNYTALIKRDTETVGGMTLDLPENPPPIPATSTAPSSDSGEVVTATAAQIKELTNYAGVAATAYCRSVVPGTKWDCKQCLKYVPDGKLIKTFTSLLTDTNGFILRSDAQKTIYVTFRGTNSFRSAITDMVFTFTDYSPVKGAKVHAGFLSSYNQVVKDYFPVVQDQLTAYPDYKVIVTGHSLGGAQALLAGMDLYQREKRLSPKNLSIYTVGCPRVGNNAFAYYVDSTGIPFHRTVHKRDIVPHVPPQAFGYLHPGVESWIKEDPADVQICTSNIETKQCSNSIVPFTSIADHLTYFGINEGSCL
modifications: Rhizopus microsporus var. chinensis
Regarding B2, the “With inhibitor RP (wash)” value was determined as 0.92 and the “No inhibitor RP (wash)” value amounted to 1.00.

B3: SEQ ID NO: 6 (MuciLip2CN): lipase of SEQ ID NO: 6, tested for propeptide specificity (protein)
chain: MVSFVSISQGISLFIVVSSMLTGSAHAAPASSHSNSSKNATTSDASTFTLPPIISSRVTPPKVPSGSHNVEDANVAKNKKWFEAHGGKLNVTKRADETVGGYTMDLPSNAPPLPAVPSTSTVVIASTAQISEFKKYAGIASTAYCRSVVPLNQWSCTNCLKFVPDGKLIKTFTSLVTDTNGFVLRSDAQKTIYVVFRGTNSIRSAITDLVFELTNYTPVSGAKVHTGFYASYKAVVSDYFPAVQSQLTAYPGYKVIVTGHSLGGAQALLAGMDLYQREPRLSKSNLAIYTVGCPRVGNPAFAYYVDSTGITFSRSVNNRDIVPHVPPQAWGFLHPGVEAWARSSSNVQICTPNIETGLCSNSIVPFTSFTDHLTYYDLNEGLCL
modifications: Mucor circinelloides
B3: the “With inhibitor RP (wash)” value amounted to 1.10 and the “No inhibitor RP (wash)” value is reported as 1.00.

B4: SEQ ID NO: 5 (Lipex): commercial lipase product Lipex (Novozymes A/S), SEQ ID NO: 5 (protein, listed as Thermomyces lanuginosus)
chain: EVSQDLFNQFNLFAQYSAAAYCGKNNDAPAGTNITCTGNACPEVEKADATFLYSFEDSGVGDVTGFLALDNTNKLIVLSFRGSRSIENWIGNLNFDLKEINDICSGCRGHDGFTSSWRSVADTLRQKVEDAVREHPDYRVVFTGHSLGGALATVAGADLRGNGYDIDVFSYGAPRVGNRAFAEFLTVQTGGTLYRITHTNDIVPRLPPREFGYSHSSPEYWIKSGTLVPVRRRDIVKIEGIDATGGNNQPNIPDIPAHLWYFGLIGTCL
Turning to B4, the “With inhibitor RP (wash)” value is 0.89 and the “No inhibitor RP (wash)” value worked out at 1.00.
